Blank lines part the entries; values can stand above or below the substance they belong to.
Legend:
[1] = molecular target: PHOX2B Q46K homeodomain (human); assay: native gel or EMSA; quantitative EMSA, purified HD protein with 34 nM fluorescent Q50 P3 probe (TAAT-TAG-ATTA); 20 min at room temperature, 10 mM Tris pH 7.5, 50 mM NaCl, 1 mM MgCl2, 4% glycerol, 0.5 mM DTT, 0.5 mM EDTA, poly(dI-dC), BSA; Tau = 4[P2D][D]/[PD]^2, the factor by which the first HD on the DNA helps the second to bind (monomer on DNA to dimer on DNA)
[2] = molecular target: PHOX2B Q46R homeodomain (human); assay: as above
[3] = molecular target: OTP homeodomain (amino acids 99-164) (human) (UniProt Q5XKR4); assay: native gel or EMSA; quantitative EMSA, purified HD protein with 34 nM fluorescent P4 probe (a single G added to the spacer of the P3 probe); same buffer; Tau = 4[P2D][D]/[PD]^2 (monomer on DNA to dimer on DNA)
[4] = molecular target: ALX4 homeodomain (amino acids 209-274) (human) (UniProt Q9H161); assay: as above
[5] = molecular target: PITX3 homeodomain (human); assay: native gel or EMSA; quantitative EMSA, purified HD protein with 34 nM fluorescent K50 P3 probe (TAAT-CCG-ATTA); 20 min at room temperature, 10 mM Tris pH 7.5, 50 mM NaCl, 1 mM MgCl2, 4% glycerol, 0.5 mM DTT, 0.5 mM EDTA, poly(dI-dC), BSA; Tau = 4[P2D][D]/[PD]^2 (monomer on DNA to dimer on DNA)

Substance: PHOX2B Q46K homeodomain (domain or fragment)
Tau (cooperativity factor) with P3 DNA [1]: 1.4

Substance: ALX4 homeodomain (amino acids 209-274) (from UniProt Q9H161 209-274) (domain or fragment)
Tau (cooperativity factor) with P4 DNA [4]: 0.792

Other lines, results leading:

Tau (cooperativity factor) with P3 DNA [2]: 1.27
Substance: PHOX2B Q46R homeodomain (domain or fragment)

Tau (cooperativity factor) with P4 DNA [3]: 0.29
Substance: OTP homeodomain (amino acids 99-164) (from UniProt Q5XKR4 99-164) (domain or fragment)

Tau (cooperativity factor) with P3 DNA [5]: 0.157
Substance: PITX3 homeodomain (domain or fragment)
